Assays:
[1] = biological target: HLA-A*69:01; experiment: IEDB peptide-MHC binding, purified MHC/competitive/fluorescence; filed as Kd, often an IC50 or EC50 that approximates it; ≥ and ≤ were set here for values at or beyond the usual limits of such assays
[2] = biological target: HLA-A*24:03; experiment: as above; conditions: source organism: Rickettsia sibirica 246
[3] = biological target: HLA-A*29:02; experiment: as above
[4] = biological target: HLA-A*26:01; experiment: as above
[5] = biological target: HLA-A*68:02; experiment: as above
[6] = biological target: HLA-A*02:01; experiment: as above
[7] = biological target: HLA-A*02:12; experiment: as above
[8] = biological target: HLA-A*02:16; experiment: as above
[9] = biological target: HLA-B*39:01; experiment: as above
[10] = biological target: HLA-B*18:01; experiment: as above
[11] = biological target: HLA-A*02:19; experiment: as above
[12] = biological target: HLA-A*03:01; experiment: as above
[13] = biological target: HLA-B*27:03; experiment: as above
[14] = biological target: HLA-B*57:01; experiment: as above
[15] = biological target: HLA-B*51:01; experiment: as above
[16] = biological target: HLA-B*35:01; experiment: IEDB peptide-MHC binding, purified MHC/direct/fluorescence; filed as Kd, often an IC50 or EC50 that approximates it; ≥ and ≤ were set here for values at or beyond the usual limits of such assays
[17] = biological target: HLA-A*69:01; experiment: as above
[18] = biological target: HLA-A*24:03; experiment: as above; conditions: source organism: Giardia lamblia ATCC 50803
[19] = biological target: HLA-B*08:01; experiment: as above
[20] = biological target: HLA-A*26:01; experiment: as above
[21] = biological target: HLA-B*07:02; experiment: as above
[22] = biological target: HLA-A*02:01; experiment: as above
[23] = biological target: HLA-B*40:01; experiment: as above
[24] = biological target: HLA-B*44:02; experiment: as above
[25] = biological target: HLA-A*01:01; experiment: as above
[26] = biological target: HLA-A*11:01; experiment: as above
[27] = biological target: HLA-A*03:01; experiment: as above
[28] = biological target: HLA-A*30:01; experiment: as above; conditions: source organism: Giardia lamblia ATCC 50803
[29] = biological target: HLA-B*15:01; experiment: as above
[30] = biological target: HLA-B*27:05; experiment: as above
[31] = biological target: HLA-A*31:01; experiment: as above; conditions: source organism: Giardia lamblia ATCC 50803
[32] = biological target: HLA-B*58:01; experiment: as above
[33] = biological target: HLA-A*02:03; experiment: IEDB peptide-MHC binding, purified MHC/competitive/fluorescence; filed as Kd, often an IC50 or EC50 that approximates it; ≥ and ≤ were set here for values at or beyond the usual limits of such assays; conditions: source organism: Escherichia coli B171
[34] = biological target: HLA-B*15:02; experiment: IEDB peptide-MHC binding, purified MHC/direct/fluorescence; filed as Kd, often an IC50 or EC50 that approximates it; ≥ and ≤ were set here for values at or beyond the usual limits of such assays; conditions: source organism: Escherichia coli O157:H7
[35] = biological target: HLA-B*46:01; experiment: as above; conditions: source organism: Escherichia coli O157:H7
[36] = source organism: Rickettsia sibirica 246
[37] = source organism: Giardia lamblia ATCC 50803
[38] = source organism: Escherichia coli B171
[39] = source organism: Escherichia coli O157:H7

In the case of AMYDPQTYY, the Kd [1, 36] is reported as at least 20 µM, the Kd [2] is reported as at least 20 µM and the Kd [3, 36] is reported as 0.0002 µM. The Kd [4, 36] was at least 20 µM, the Kd [5, 36] was at least 20 µM and the Kd [6, 36] was at least 20 µM. The Kd [7, 36] was at least 20 µM, the Kd [8, 36] was at least 20 µM and the Kd [9, 36] was at least 20 µM. The Kd [10, 36] was at least 20 µM, the Kd [11, 36] was at least 20 µM and the Kd [12, 36] was 0.0142 µM. For the same sequence, the Kd [13, 36] was at least 20 µM, the Kd [14, 36] was at least 20 µM and the Kd [15, 36] was at least 20 µM.

IPRQWHPFA showed a Kd [16, 37] of 1.1 µM, a Kd [17, 37] of at least 20 µM and a Kd [18] of 10.6 µM. The Kd [19, 37] was 3.8 µM, the Kd [20, 37] was at least 20 µM and the Kd [21, 37] was 0.154 µM. It also gave a Kd [22, 37] of at least 20 µM, a Kd [23, 37] of at least 20 µM and a Kd [24, 37] of at least 20 µM. It also gave a Kd [25, 37] of at least 20 µM, a Kd [26, 37] of at least 20 µM and a Kd [27, 37] of at least 20 µM. For the same sequence, the Kd [28] was 4.66 µM, the Kd [29, 37] was at least 20 µM and the Kd [30, 37] was at least 20 µM. The Kd [31] was at least 20 µM and the Kd [32, 37] was at least 20 µM.

For KAIIDTAQF, the Kd [1, 38] was at least 20 µM, the Kd [3, 38] was at least 20 µM and the Kd [4, 38] was at least 20 µM. The Kd [5, 38] was at least 20 µM, the Kd [6, 38] was at least 20 µM and the Kd [7, 38] was at least 20 µM. It also gave a Kd [8, 38] of at least 20 µM, a Kd [9, 38] of at least 20 µM and a Kd [10, 38] of at least 20 µM. It also gave a Kd [11, 38] of at least 20 µM, a Kd [12, 38] of at least 20 µM and a Kd [33] of at least 20 µM. For the same sequence, the Kd [13, 38] was at least 20 µM, the Kd [14, 38] was 0.209 µM and the Kd [15, 38] was at least 20 µM.

In the case of LQLTAVFAY, the Kd [16, 39] is reported as 0.0102 µM, the Kd [17, 39] is reported as at least 20 µM and the Kd [19, 39] is reported as at least 20 µM. For the same sequence, the Kd [20, 39] was at least 20 µM, the Kd [21, 39] was at least 20 µM and the Kd [22, 39] was at least 20 µM. For the same sequence, the Kd [23, 39] was at least 20 µM, the Kd [24, 39] was at least 20 µM and the Kd [34] was 1.01 µM. For the same sequence, the Kd [25, 39] was at least 20 µM, the Kd [26, 39] was 1.98 µM and the Kd [27, 39] was at least 20 µM. It also gave a Kd [29, 39] of 0.0796 µM, a Kd [30, 39] of 0.0907 µM and a Kd [35] of at least 20 µM. For the same sequence, the Kd [32, 39] was at least 20 µM.
